B1: cr657 (nucleic acid)
guide: GTTTAAGAGCTAAGCTGGAAACAGCATAGCAAGTTTAAATAAGGCTAGTGCGTTATCAACTTGAAAAAGTGGCACCGAGTCGGTGCT
modifications: listed as DNA, chemistry not fully specified
B2: cr083 (nucleic acid)
guide: GTGTGAGAGCTAAGCTGGAAACAGCATAGCAAGTTTAAATAAGGCTAGTCCGTTATCAACTTGAAAAAGTGGCACCGAGTCGGTGCT
modifications: listed as DNA, chemistry not fully specified
B3: cr939 (nucleic acid)
guide: GTTTAAGAGCTAAGCTGGAAACAGCATAGCAACTTTAAATAAGGCAAGTCCCTTATCAACTTGAAAAAGTGGCACCGAGTCGGTGCT
modifications: listed as DNA, chemistry not fully specified
B4: cr431 (nucleic acid)
guide: GTTTAAGAGCTAAGCTGGAAACAGCATAGCAAGGTTAAATAAGGCTAGTCCGTTATCAACTTGAGAAAGTGGCACCGCGTCGGTGCT
modifications: listed as DNA, chemistry not fully specified
B5: cr912 (nucleic acid)
guide: GTTTAAGAGCTAAGCTGGAAACAGCATAGCAAGCTTAAATGAGGCTAGTCCGGTATCAACTTGAAAAAGTGGCACCGAGTCGGTGCT
modifications: listed as DNA, chemistry not fully specified
B6: cr751 (nucleic acid)
guide: GTTTAAGAGCTAAGCTGGAAACAGCATCGCAACTTTAAATAAGGCTAGTCCTTTATCAACTTGAAAAAGTGGCACCGAGTCGGTGCT
modifications: listed as DNA, chemistry not fully specified
B7: cr035 (nucleic acid)
guide: GTTGATGAGCTAAGCTGGAAACAGCATAGCAAGTTTAAATAAGGCTAGTCCGTTATCAACTTGAAAAAGTGGCACCGAGTCGGTGCT
modifications: listed as DNA, chemistry not fully specified
B8: cr093 (nucleic acid)
guide: GTTTCGGAGCTAAGCTGGAAACAGCATAGCAAGTTTAAATAAGGCTAGTCCGTTATCAACTTGAAAAAGTGGCACCGAGTCGGTGCT
modifications: listed as DNA, chemistry not fully specified
B9: cr735 (nucleic acid)
guide: GTTTAAGAGCTAAGCTGGAAACAGCATAGCAACTTTAAATAAGGCTAGTCCGTTATCAACTTGAAAAAGTCGCACCGAGTCGGTGCT
modifications: listed as DNA, chemistry not fully specified
B10: cr874 (nucleic acid)
guide: GTTTAAGAGCTAAGCTGGAAACAGCATAGCAAGGTTAAATAATGCTAGTCAGTTATCAACTTGAAAAAGTGGCACCGAGTCGGTGCT
modifications: listed as DNA, chemistry not fully specified
B11: cr786 (nucleic acid)
guide: GTTTAAGAGCTAAGCTGGAAACAGCATAGCAAGTTTAAATTAGGCTAGTCCGTTGTGAACTTGAAAAAGTGGCACCGAGTCGGTGCT
modifications: listed as DNA, chemistry not fully specified
B12: cr579 (nucleic acid)
guide: GTTTAAGAGCTAAGCTGGAAACAGCATAGCAAGTTTAAATAAGGCTAGTCCCATATCAACTTGAAAAAGTGGCACCGAGTCGGTGCT
modifications: listed as DNA, chemistry not fully specified
B13: cr039 (nucleic acid)
guide: GATTATGAGCTAAGCTGGAAACAGCATAGCAAGTTTAAATAAGGCTAGTCCGTTATCAACTTGAAAAAGTGGCACCGAGTCGGTGCT
modifications: listed as DNA, chemistry not fully specified
B14: cr149 (nucleic acid)
guide: GTTTAAGAGCTAAGCTGGAAACAGCATAGCAAGTTTAAATAACGCTAGTCGGTTATCAACTTGAAAAAGTGTCACCGAGTCGGTGAT
modifications: listed as DNA, chemistry not fully specified
B15: cr143 (nucleic acid)
guide: GTTTAAGAGCTAAGCTGGAAACAGCATAGCAACTTTAAATAAGACTAGTTCGTTATCAACTTGAAAAAGTGGCACCGAGTCGGTGCT
modifications: listed as DNA, chemistry not fully specified
B16: cr129 (nucleic acid)
guide: GTTTAAGAGCTAAGCTGGAAACAGCATAGCAAGTTTAAATAAGGCTAGTCCGTTATCAACGTGAGAACGTGGCACCGAGTCGGTGCT
modifications: listed as DNA, chemistry not fully specified
B17: cr106 (nucleic acid)
guide: GTTTAAGAGCTAAGCTGGAAACAGCATAGCAAGGTTAAATAAGTCTAGTACGTTATCAACTTGAAAAAGTGGCACCGAGTCGGTGCT
modifications: listed as DNA, chemistry not fully specified
B18: cr975 (nucleic acid)
guide: GTTTAAGAGCTAAGCTGGAAACAGCATAGCAACTTTAAATATGGCTAGTCCGTTATCAACTTGAAAAAGTGGCACCGAGTCGGTGCT
modifications: listed as DNA, chemistry not fully specified
B19: cr497 (nucleic acid)
guide: GTTTAAGAGCTAAGCTGGAAACAGCATAGCAAGTTTAAATAAGGCTAGTCCGTTATCAACTTGAGAAAGTGGAACCGAGTCGGTTCT
modifications: listed as DNA, chemistry not fully specified
B20: cr535 (nucleic acid)
guide: GTTTAAGAGCTAAGCTGGAAACAGCATAGCAAGTTTAAATAAGGCTAGTCAGTTATCAACTTGAAAAAGTGGCACCGAGTCGGTGCT
modifications: listed as DNA, chemistry not fully specified
B21: cr903 (nucleic acid)
guide: GTTTAAGAGCTAAGCTGGAAACAGCATAGCAAGTTTAAATAAGGCTAGTCCCTTATCAACTTGAAAAAGTGGCACCGAATCGGTGCT
modifications: listed as DNA, chemistry not fully specified
B22: cr244 (nucleic acid)
guide: GTTTAAGAGCTAAGCTGGAAACAGCATAGCAAGGTTAAATAAGGGTACTCCGTTATCAACTTGAAAAAGTGGCACCGAGTCGGTGCT
modifications: listed as DNA, chemistry not fully specified
B23: cr099 (nucleic acid)
guide: GTTTAAGAGCTAAGCTGGAAACAGCATAGCAATTTTAAATAAGGCTAGGCCGTTATCAACTTGAAAAAGTGGCACCGAGTCGGTGCT
modifications: listed as DNA, chemistry not fully specified
B24: cr350 (nucleic acid)
guide: GTTTAAGAGCTAAGCTGGAAACAGCATAGCAAGCTTAAATAATGCTAGTCAGTTATCAACTTGAAAAAGTGGCACCGAGTCGGTGCT
modifications: listed as DNA, chemistry not fully specified
B25: cr355 (nucleic acid)
guide: GTTTAAGAGCTAAGCTGGAAACAGCATAGCAAGGTTAAATAAGGCTAGTCCGTTATCAACTAGAAATAGTGGCACCGAGTCGGTGCT
modifications: listed as DNA, chemistry not fully specified
B26: cr810 (nucleic acid)
guide: GTTTAAGAGCTAAGCTGGAAACAGCATAGCAAGGTTAAATAAGGCTAGTCCGTTATCAACTTGAAAAAGTGGCACCCAGTGGGTGCT
modifications: listed as DNA, chemistry not fully specified
B27: cr629 (nucleic acid)
guide: GTTTAAGAGCTAAGCTGGAAACAGCATAGCAACTTTAAATAAGGCTAGTCCGTTATCAAATTGAAAAATTGGCACCGAGTCGGTGCT
modifications: listed as DNA, chemistry not fully specified
B28: cr608 (nucleic acid)
guide: GTTTAAGAGCTAAGCTGGAAACAGCATAGCAACTTTAAATAAGGGTACTCCGTTATCAACTTGAAAAAGTGGCACCGAGTCGGTGCT
modifications: listed as DNA, chemistry not fully specified
B29: cr930 (nucleic acid)
guide: GTTTAAGAGCTAAGCTGGAAACAGCATAGCATGTTTAAATAAGGCTAGGCCGTTATTAACTTGAAAAAGTGGCACCGAGTCGGTGCT
modifications: listed as DNA, chemistry not fully specified
B30: cr787 (nucleic acid)
guide: GTTTAAGAGCTAAGCTGGAAACAGCATAGCAACTTTAAATAACGCTAGTCGGTTATCAACTTGAAAAAGTGGCACCGAGTCGGTGCT
modifications: listed as DNA, chemistry not fully specified

test system: K562 CRISPRi cells; experiment: Constant region variant library pooled growth screen, K562; assay type: cell-based, human; settings: sgRNA constant region variants; activity relative to the original, un-modified constant region cr995
Method in brief: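 Library of sgRNA constant-region variants, each paired with 36 targeting sequences (essential-gene and non-targeting), transduced in duplicate into K562 CRISPRi cells, puromycin-selected and grown 4–8 days at >2000× coverage. Activity per variant is its growth phenotype normalised to the same targeting sequence with unmodified constant region.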

Going from B1 to B2, the Mean relative activity falls from 0.002604 to 0.001403.

First: B3
Second: B4
The Mean relative activity of the first is higher: 4.94E−05 for the first, −0.0002713 for the second.

Compared with B5, B6 is lower in Mean relative activity: −1.05E−05 for the first, −0.000557 for the second.

First: B7
Second: B8
The Mean relative activity of the first is lower: 0.0006927 for the first, 0.001456 for the second.

Compared with B9, B10 is lower in Mean relative activity: 0.002596 for the first, 0.002144 for the second.

Going from B11 to B12, the Mean relative activity falls from 0.001749 to −0.000418.

First: B13
Second: B14
The Mean relative activity of the first is lower: −0.0006181 for the first, 0.00167 for the second.

Compared with B15, B16 is higher in Mean relative activity: 0.001524 for the first, 1.029 for the second.

First: B17
Second: B18
The Mean relative activity of the first is lower: 0.001355 for the first, 0.002152 for the second.

Going from B19 to B20, the Mean relative activity falls from 1.028 to −0.0004281.

Compared with B21, B22 is lower in Mean relative activity: 0.00222 for the first, 0.00149 for the second.

Going from B23 to B24, the Mean relative activity rises from 0.0005052 to 0.001423.

Compared with B25, B26 is higher in Mean relative activity: 0.001771 for the first, 0.002026 for the second.

Compared with B27, B28 is higher in Mean relative activity: −5.97E−5 for the first, 0.002568 for the second.

Compared with B29, B30 is lower in Mean relative activity: 0.001721 for the first, 0.0008483 for the second.
